Results from patent publication US20060024786A1, “WASP and N-WASP constructs and methods of expressing such constructs” (Cytokinetics, Inc., priority 2004, published 2006).
Entries after “also recorded” stand apart in the source; their conditions may differ. Values belong to the substance of their own block, whether it stands above or below them.

How the values were obtained:
full length human WASP [1] = target: T1, full length human WASP (Homo sapiens, UniProt P42768); assay: Pyrene-actin polymerization assay: activation of full length WASP by upstream regulators; assay type: biochemical; details: for activation of FL WASP: Arp2/3 complex 4.0 nM, actin 3.5 μM
T1 construct: ProtA (part of TAP tag, behind the tev site) (C, cleaved yes); made in house; host or cells: human 293 cells (Freestyle 293 expression system)
T1 sequence (P42768 whole entry, added parts left off): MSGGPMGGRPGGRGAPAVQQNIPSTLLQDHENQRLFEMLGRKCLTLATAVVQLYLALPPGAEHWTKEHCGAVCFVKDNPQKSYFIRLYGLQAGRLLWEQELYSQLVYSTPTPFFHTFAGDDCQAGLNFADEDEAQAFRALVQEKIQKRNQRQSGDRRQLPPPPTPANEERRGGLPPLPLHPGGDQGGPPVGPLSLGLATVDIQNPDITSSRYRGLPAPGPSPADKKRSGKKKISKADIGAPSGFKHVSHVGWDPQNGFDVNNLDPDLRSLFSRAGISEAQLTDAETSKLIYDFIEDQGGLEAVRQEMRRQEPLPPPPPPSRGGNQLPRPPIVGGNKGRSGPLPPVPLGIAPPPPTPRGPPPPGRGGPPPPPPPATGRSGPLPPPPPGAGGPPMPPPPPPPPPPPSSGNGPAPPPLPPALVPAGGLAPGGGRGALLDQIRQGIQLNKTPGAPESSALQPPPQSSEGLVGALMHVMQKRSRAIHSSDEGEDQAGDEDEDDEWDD
Protocol: (§1) Samples containing candidate agents (individually or as mixtures) are placed into wells on a multi-well plate. Mix 1 is added to each of the wells and mixed with the candidate agent. A sample of Mix 2 is then introduced into each well and the resulting mixture thoroughly mixed. Typically, Mix 1 and Mix 2 are mixed in 1:1 ratio (e.g., 50 μl each of Mix 1 and Mix 2).
(§2) Actin polymerization is measured as a function of time by exciting pyrene at 365 nm and by detecting an increase in fluorescence emission at 407 nm. The change in fluorescence over time is utilized to determine a fluorescence parameter (e.g., maximal velocity, time to half maximal fluorescence intensity or area under the curve of a plot of fluorescence versus time).
Full length WASP was prepared as described in Example 1. This protein was then used as a substitute GST-105WASP in methods that were otherwise identical to the methods described in Example 7.
(§3) Full length human WASP and N-WASP were TAP-tagged (Rigaut, et al. (1999) Nat. Biotechnology 17:1030, which is incorporated herein by reference in its entirety for all purposes) at the C-terminus (see, also Examples 1 and 2). The recombinant WASP and N-WASP were expressed in human 293 cells and then purified using a TAP-tag protocol as described in Example 5.
The Arp2/3 complex in these experiments was 4.0 nM and the actin concentration 3.5 μM.
The effect of PIP2on the ability of upstream regulators to regulate FL WASP was evaluated in a fifth set of experiments. The results are depicted in graphical format in FIG. 9.

full length human N-WASP = target: T2, full length human N-WASP (Homo sapiens, UniProt O00401); assay: Pyrene-actin polymerization assay: activation of full length N-WASP by upstream regulators; assay type: biochemical; details: for Barbed ends: total concentration of Arp2/3 complex in the assay 4.2 nM; for activation of FL N-WASP: Arp2/3 complex 4.0 nM, actin 3.5 μM
T2 construct: ProtA (part of TAP tag, behind the tev site) (C, cleaved yes); made in house; host or cells: human 293 cells; cDNA amplified from HeLa total RNA
T2 sequence (O00401 with tags, fused parts or gaps Y76H/A201G/F223S/S242L/D248E/S252L/N296S/A333E): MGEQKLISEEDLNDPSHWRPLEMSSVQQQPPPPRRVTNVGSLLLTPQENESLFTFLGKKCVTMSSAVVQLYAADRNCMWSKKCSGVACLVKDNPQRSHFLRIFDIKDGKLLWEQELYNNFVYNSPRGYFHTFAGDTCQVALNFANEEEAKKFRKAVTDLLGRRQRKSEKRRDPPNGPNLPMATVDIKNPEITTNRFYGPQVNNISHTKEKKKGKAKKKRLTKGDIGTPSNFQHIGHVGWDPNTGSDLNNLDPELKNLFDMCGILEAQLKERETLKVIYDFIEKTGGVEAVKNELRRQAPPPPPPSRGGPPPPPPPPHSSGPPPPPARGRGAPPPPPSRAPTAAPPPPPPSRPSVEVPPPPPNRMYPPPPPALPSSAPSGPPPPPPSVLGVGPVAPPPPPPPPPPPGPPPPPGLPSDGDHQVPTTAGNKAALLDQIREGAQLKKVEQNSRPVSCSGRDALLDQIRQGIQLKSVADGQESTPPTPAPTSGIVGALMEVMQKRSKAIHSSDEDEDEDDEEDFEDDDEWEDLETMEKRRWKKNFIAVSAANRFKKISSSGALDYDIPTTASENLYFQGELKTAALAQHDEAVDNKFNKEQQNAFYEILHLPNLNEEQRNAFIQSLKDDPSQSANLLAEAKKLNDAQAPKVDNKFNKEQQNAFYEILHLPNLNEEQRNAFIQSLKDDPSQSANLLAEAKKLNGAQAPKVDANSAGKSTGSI
Protocol: as §1, §2
Full length N-WASP was prepared as described in Example 2. This protein was then used as a substitute GST-105 WASP in methods that were otherwise identical to the methods described in Example 7.
as §3
Arp2/3 and actin concentrations were as described for the third experiment.
Another set of experiments similar to the fifth set were conducted using FL N-WASP.

full length human WASP [2] = target: T1, full length human WASP; assay: Pyrene-actin polymerization assay: activation of full length WASP by upstream regulators; assay type: biochemical; details: total concentration of Arp2/3 complex in the assay 4.2 nM
Arp2/3 complex = target: T3, Arp2/3 complex; assay: Arp2/3-mediated actin polymerization stimulated by WASP/N-WASP proteins; assay type: biochemical, human
T3 construct: prepared from an Arp2/3 source such as human platelets; from tissue; host or cells: cell extract, e.g. human platelets
Protocol: as §1, §2
In a second set of experiments, the ability of various truncated forms of WASP were compared to the activity of the full-length protein. The polymerization assays were conducted in the presence of 500 nM Cdc42, 2.5 nm purified Arp2/3 complex and 3.5 μM actin. FL-WASP, 105 WASP and the VCA (see Example 7) domain were tested. The results of these trials were plotted to obtain EC50 values. The results are provided in FIG. 6 and in the chart below.

[3] = Solubility of purified full-length protein; assay type: physicochemical; details: expressed in 293 cells, TAP-tag purification
[4] = 500 nM Cdc42, 2.5 nm Arp2/3 complex, 3.5 μM actin, from EC50 values

acceleration of actin polymerization by activator (full length human WASP [1]; FL-WASP plus activator versus FL-WASP alone, FIG. 5): 13 fold
acceleration of actin polymerization by activator (full length human N-WASP; N-WASP plus activator versus N-WASP alone, FIG. 5): 13 fold
Barbed ends (full length human N-WASP; N-WASP): 1.3 nM
Barbed ends (full length human WASP [2]): 3.8 nM
Substance: Cdc42: Rho-family GTPase, upstream regulator; GST-tagged Cdc42 GTP with G12 mutated to V, SEQ ID NO:26
activation of FL WASP (full length human WASP [1]; FIG. 7): can fully activate FL WASP; also recorded: more effective on WASP-stimulated actin nucleation by Arp2/3 complex than on N-WASP-stimulated actin nucleation

Barbed ends % of max. (full length human WASP [1]; WASP, after subtracting baseline (WASP without activators)): 50%
Barbed ends % of max. (full length human N-WASP; N-WASP, after subtracting baseline (without activators)): 78%
Barbed ends (full length human N-WASP; N-WASP): 3.5 nM
Barbed ends (full length human WASP [2]): 2.6 nM
Substance: Nck2: upstream regulator; GST-tagged NCK2, SEQ ID NO:40
dose dependence of barbed end concentration / effect at higher concentrations (full length human WASP [1]; FL WASP, FIG. 7): bell shaped dependence; also recorded: inhibited
activation of FL N-WASP (full length human N-WASP; FIG. 8): only activators tested that can stimulate production of maximal concentration of barbed ends
dose dependence of barbed end concentration / effect at higher concentrations (full length human N-WASP; FL N-WASP, FIG. 8): bell shaped dose dependence; also recorded: inhibited
comparison as N-WASP activator (full length human N-WASP; Rac1 versus Cdc42 in the absence of PIP2 vesicles, Nck2 on N-WASP versus WASP, FIG. 8): significantly better activator of N-WASP than WASP

effect of PIP2 on FL WASP (full length human WASP [1]; in the absence of small GTPases or Nck, FIG. 9): minimal, if any, effect
Substance: phosphatidylinositol-4,5-bisphosphate [PIP2, reference compound]

More lines, now with the values behind:

Substance: FL-WASP: full-length Wiskott-Aldrich syndrome protein, SEQ ID NO:2; expressed TAP-tagged in human 293 cells
activity relative to 105 WASP (Arp2/3 complex; [4]): approximately 20 times
potency relative to the VCA/WA domain (Arp2/3 complex; [4]): more than 70 times
stimulation of actin polymerization by the protein by itself (Arp2/3 complex; without upstream regulators, FIG. 5): only weakly stimulate actin polymerization
solubility of purified protein [3]: completely soluble

Substance: RhoA: GTPase; GST-tagged RhoA GTP, SEQ ID NO:30
activation of FL WASP (full length human WASP [1]; FIG. 7): could not activate
activation of FL N-WASP (full length human N-WASP; FIG. 8): could not activate

Substance: RhoC: GTPase; GST-tagged RhoC GTP with G14 mutated to V, SEQ ID NO:28
activation of FL WASP (full length human WASP [1]; FIG. 7): could not activate
activation of FL N-WASP (full length human N-WASP; FIG. 8): could not activate
